From patent US20140087995A1 (published 2014)
Numbered stars: 1 amine (or outer) side, 2 acyl side, 3 side chain; on linkers, the order of the positions; unused ones are H or OH. Bridge positions count the residues as written; N and C are the ends. Side chains are listed from the residue outwards. Ends that are not written are not given here. * marks the point of attachment. C20 diacid = O=C(O)CCCCCCCCCCCCCCCCCCC(=O)*; γGlu = O=C(O)[C@H](CCC(=O)[*:2])N[*:1]; AEEA = NCCOCCOCC(=O)O

T1: human amylin receptor (human, UniProt P30988 25-474; O60896 24-148, limits assumed)
T1 construct: whole, on cells; Calcitonin receptor plus RAMP-3 gives the amylin 3(a) receptor; membranes of Amylin 3(a)/CRE-luc cells were used; also called hAmylin-R; hAmylinR
T1 sequence (looked up) 1: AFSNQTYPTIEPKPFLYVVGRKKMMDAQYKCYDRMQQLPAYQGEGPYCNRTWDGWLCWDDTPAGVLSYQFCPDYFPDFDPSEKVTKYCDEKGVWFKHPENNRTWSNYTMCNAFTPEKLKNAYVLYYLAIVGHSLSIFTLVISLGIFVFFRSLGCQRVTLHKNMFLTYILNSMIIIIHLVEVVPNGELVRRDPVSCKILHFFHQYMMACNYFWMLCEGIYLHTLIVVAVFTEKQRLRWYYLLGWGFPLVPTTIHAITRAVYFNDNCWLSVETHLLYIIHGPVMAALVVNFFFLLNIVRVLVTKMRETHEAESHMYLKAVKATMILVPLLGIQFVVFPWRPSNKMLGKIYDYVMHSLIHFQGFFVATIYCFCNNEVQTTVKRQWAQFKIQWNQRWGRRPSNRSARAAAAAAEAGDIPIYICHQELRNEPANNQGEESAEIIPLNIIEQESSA
T1 sequence (looked up) 2: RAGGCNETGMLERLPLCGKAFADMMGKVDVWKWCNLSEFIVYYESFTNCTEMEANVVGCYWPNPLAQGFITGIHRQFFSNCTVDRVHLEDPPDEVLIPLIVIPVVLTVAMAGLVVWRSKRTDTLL

B1: N^ε1-[2-[2-[2-[[2-[2-[2-[[(4S)-4-carboxy-4-(19-carboxynonadecanoylamino)butanoyl]amino]ethoxy]ethoxy]acetyl]amino]ethoxy]ethoxy]acetyl]-[Arg17,Pro21,Pro27,Glu35 … (peptide)
peptide: K([AEEA-AEEA-γGlu-C20 diacid])CNTATCATQRLANFLRHSSPNFGAIPSSTNVGSETY-NH2
modifications: disulfide 2-7; N-terminus assumed
SMILES: CC[C@H](C)[C@H](NC(=O)[C@H](C)NC(=O)CNC(=O)[C@H](Cc1ccccc1)NC(=O)[C@H](CC(N)=O)NC(=O)[C@@H]1CCCN1C(=O)[C@H](CO)NC(=O)[C@H](CO)NC(=O)[C@H](Cc1c[nH]cn1)NC(=O)[C@H](CCCNC(=N)N)NC(=O)[C@H](CC(C)C)NC(=O)[C@H](Cc1ccccc1)NC(=O)[C@H](CC(N)=O)NC(=O)[C@H](C)NC(=O)[C@H](CC(C)C)NC(=O)[C@H](CCCNC(=N)N)NC(=O)[C@H](CCC(N)=O)NC(=O)[C@@H](NC(=O)[C@H](C)NC(=O)[C@@H]1CSSC[C@H](NC(=O)[C@@H](N)CCCCNC(=O)COCCOCCNC(=O)COCCOCCNC(=O)CC[C@H](NC(=O)CCCCCCCCCCCCCCCCCCC(=O)O)C(=O)O)C(=O)N[C@@H](CC(N)=O)C(=O)N[C@@H]([C@@H](C)O)C(=O)N[C@@H](C)C(=O)N[C@@H]([C@@H](C)O)C(=O)N1)[C@@H](C)O)C(=O)N1CCC[C@H]1C(=O)N[C@@H](CO)C(=O)N[C@@H](CO)C(=O)N[C@H](C(=O)N[C@@H](CC(N)=O)C(=O)N[C@H](C(=O)NCC(=O)N[C@@H](CO)C(=O)N[C@@H](CCC(=O)O)C(=O)N[C@H](C(=O)N[C@@H](Cc1ccc(O)cc1)C(N)=O)[C@@H](C)O)C(C)C)[C@@H](C)O
notes: also called 17R, 21P, 27P, 35E
B2: N^ε1-[2-[2-[2-[[2-[2-[2-[[(4S)-4-carboxy-4-(19-carboxynonadecanoylamino)butanoyl]amino]ethoxy]ethoxy]acetyl]amino]ethoxy]ethoxy]acetyl]-[Arg17,Pro21,Pro27,His34 … (peptide)
peptide: K([AEEA-AEEA-γGlu-C20 diacid])CNTATCATQRLANFLRHSSPNFGAIPSSTNVGHNTY-NH2
modifications: disulfide 2-7; N-terminus assumed
SMILES: CC[C@H](C)[C@H](NC(=O)[C@H](C)NC(=O)CNC(=O)[C@H](Cc1ccccc1)NC(=O)[C@H](CC(N)=O)NC(=O)[C@@H]1CCCN1C(=O)[C@H](CO)NC(=O)[C@H](CO)NC(=O)[C@H](Cc1c[nH]cn1)NC(=O)[C@H](CCCNC(=N)N)NC(=O)[C@H](CC(C)C)NC(=O)[C@H](Cc1ccccc1)NC(=O)[C@H](CC(N)=O)NC(=O)[C@H](C)NC(=O)[C@H](CC(C)C)NC(=O)[C@H](CCCNC(=N)N)NC(=O)[C@H](CCC(N)=O)NC(=O)[C@@H](NC(=O)[C@H](C)NC(=O)[C@@H]1CSSC[C@H](NC(=O)[C@@H](N)CCCCNC(=O)COCCOCCNC(=O)COCCOCCNC(=O)CC[C@H](NC(=O)CCCCCCCCCCCCCCCCCCC(=O)O)C(=O)O)C(=O)N[C@@H](CC(N)=O)C(=O)N[C@@H]([C@@H](C)O)C(=O)N[C@@H](C)C(=O)N[C@@H]([C@@H](C)O)C(=O)N1)[C@@H](C)O)C(=O)N1CCC[C@H]1C(=O)N[C@@H](CO)C(=O)N[C@@H](CO)C(=O)N[C@H](C(=O)N[C@@H](CC(N)=O)C(=O)N[C@H](C(=O)NCC(=O)N[C@@H](Cc1c[nH]cn1)C(=O)N[C@@H](CC(N)=O)C(=O)N[C@H](C(=O)N[C@@H](Cc1ccc(O)cc1)C(N)=O)[C@@H](C)O)C(C)C)[C@@H](C)O
notes: also called 17R, 21P, 27P, 34H
B3: N^ε1-[2-[2-[2-[[(4S)-4-carboxy-4-(19-carboxynonadecanoylamino)butanoyl]amino]ethoxy]ethoxy]acetyl]-[Arg14,Arg17,Pro21,Pro27,Pro31]-h-amylin (peptide)
peptide: K([AEEA-γGlu-C20 diacid])CNTATCATQRLARFLRHSSPNFGAIPSSTPVGSNTY-NH2
modifications: disulfide 2-7; N-terminus assumed
SMILES: CC[C@H](C)[C@H](NC(=O)[C@H](C)NC(=O)CNC(=O)[C@H](Cc1ccccc1)NC(=O)[C@H](CC(N)=O)NC(=O)[C@@H]1CCCN1C(=O)[C@H](CO)NC(=O)[C@H](CO)NC(=O)[C@H](Cc1c[nH]cn1)NC(=O)[C@H](CCCNC(=N)N)NC(=O)[C@H](CC(C)C)NC(=O)[C@H](Cc1ccccc1)NC(=O)[C@H](CCCNC(=N)N)NC(=O)[C@H](C)NC(=O)[C@H](CC(C)C)NC(=O)[C@H](CCCNC(=N)N)NC(=O)[C@H](CCC(N)=O)NC(=O)[C@@H](NC(=O)[C@H](C)NC(=O)[C@@H]1CSSC[C@H](NC(=O)[C@@H](N)CCCCNC(=O)COCCOCCNC(=O)CC[C@H](NC(=O)CCCCCCCCCCCCCCCCCCC(=O)O)C(=O)O)C(=O)N[C@@H](CC(N)=O)C(=O)N[C@@H]([C@@H](C)O)C(=O)N[C@@H](C)C(=O)N[C@@H]([C@@H](C)O)C(=O)N1)[C@@H](C)O)C(=O)N1CCC[C@H]1C(=O)N[C@@H](CO)C(=O)N[C@@H](CO)C(=O)N[C@H](C(=O)N1CCC[C@H]1C(=O)N[C@H](C(=O)NCC(=O)N[C@@H](CO)C(=O)N[C@@H](CC(N)=O)C(=O)N[C@H](C(=O)N[C@@H](Cc1ccc(O)cc1)C(N)=O)[C@@H](C)O)C(C)C)[C@@H](C)O
notes: also called 14R, 17R, 21P, 27P, 31P
B4: N^ε1-[2-[2-[2-[[2-[2-[2-[[(4S)-4-carboxy-4-(19-carboxynonadecanoylamino)butanoyl]amino]ethoxy]ethoxy]acetyl]amino]ethoxy]ethoxy]acetyl]-[Arg17,Pro21,Pro27,Pro31 … (peptide)
peptide: K([AEEA-AEEA-γGlu-C20 diacid])CNTATCATQRLANFLRHSSPNFGAIPSSTPVGSNTY-NH2
modifications: disulfide 2-7; N-terminus assumed
SMILES: CC[C@H](C)[C@H](NC(=O)[C@H](C)NC(=O)CNC(=O)[C@H](Cc1ccccc1)NC(=O)[C@H](CC(N)=O)NC(=O)[C@@H]1CCCN1C(=O)[C@H](CO)NC(=O)[C@H](CO)NC(=O)[C@H](Cc1c[nH]cn1)NC(=O)[C@H](CCCNC(=N)N)NC(=O)[C@H](CC(C)C)NC(=O)[C@H](Cc1ccccc1)NC(=O)[C@H](CC(N)=O)NC(=O)[C@H](C)NC(=O)[C@H](CC(C)C)NC(=O)[C@H](CCCNC(=N)N)NC(=O)[C@H](CCC(N)=O)NC(=O)[C@@H](NC(=O)[C@H](C)NC(=O)[C@@H]1CSSC[C@H](NC(=O)[C@@H](N)CCCCNC(=O)COCCOCCNC(=O)COCCOCCNC(=O)CC[C@H](NC(=O)CCCCCCCCCCCCCCCCCCC(=O)O)C(=O)O)C(=O)N[C@@H](CC(N)=O)C(=O)N[C@@H]([C@@H](C)O)C(=O)N[C@@H](C)C(=O)N[C@@H]([C@@H](C)O)C(=O)N1)[C@@H](C)O)C(=O)N1CCC[C@H]1C(=O)N[C@@H](CO)C(=O)N[C@@H](CO)C(=O)N[C@H](C(=O)N1CCC[C@H]1C(=O)N[C@H](C(=O)NCC(=O)N[C@@H](CO)C(=O)N[C@@H](CC(N)=O)C(=O)N[C@H](C(=O)N[C@@H](Cc1ccc(O)cc1)C(N)=O)[C@@H](C)O)C(C)C)[C@@H](C)O
notes: also called 17R, 21P, 27P, 31P
B5: N^ε1-[2-[2-[2-[[2-[2-[2-[[(4S)-4-carboxy-4-(19-carboxynonadecanoylamino)butanoyl]amino]ethoxy]ethoxy]acetyl]amino]ethoxy]ethoxy]acetyl]-[Arg17,Pro21,Pro27,Pro34 … (peptide)
peptide: K([AEEA-AEEA-γGlu-C20 diacid])CNTATCATQRLANFLRHSSPNFGAIPSSTNVGPNTY-NH2
modifications: disulfide 2-7; N-terminus assumed
SMILES: CC[C@H](C)[C@H](NC(=O)[C@H](C)NC(=O)CNC(=O)[C@H](Cc1ccccc1)NC(=O)[C@H](CC(N)=O)NC(=O)[C@@H]1CCCN1C(=O)[C@H](CO)NC(=O)[C@H](CO)NC(=O)[C@H](Cc1c[nH]cn1)NC(=O)[C@H](CCCNC(=N)N)NC(=O)[C@H](CC(C)C)NC(=O)[C@H](Cc1ccccc1)NC(=O)[C@H](CC(N)=O)NC(=O)[C@H](C)NC(=O)[C@H](CC(C)C)NC(=O)[C@H](CCCNC(=N)N)NC(=O)[C@H](CCC(N)=O)NC(=O)[C@@H](NC(=O)[C@H](C)NC(=O)[C@@H]1CSSC[C@H](NC(=O)[C@@H](N)CCCCNC(=O)COCCOCCNC(=O)COCCOCCNC(=O)CC[C@H](NC(=O)CCCCCCCCCCCCCCCCCCC(=O)O)C(=O)O)C(=O)N[C@@H](CC(N)=O)C(=O)N[C@@H]([C@@H](C)O)C(=O)N[C@@H](C)C(=O)N[C@@H]([C@@H](C)O)C(=O)N1)[C@@H](C)O)C(=O)N1CCC[C@H]1C(=O)N[C@@H](CO)C(=O)N[C@@H](CO)C(=O)N[C@H](C(=O)N[C@@H](CC(N)=O)C(=O)N[C@H](C(=O)NCC(=O)N1CCC[C@H]1C(=O)N[C@@H](CC(N)=O)C(=O)N[C@H](C(=O)N[C@@H](Cc1ccc(O)cc1)C(N)=O)[C@@H](C)O)C(C)C)[C@@H](C)O
notes: also called 17R, 21P, 27P, 34P
B6: N^ε1-[2-[2-[2-[[(4S)-4-carboxy-4-(19-carboxynonadecanoylamino)butanoyl]amino]ethoxy]ethoxy]acetyl]-[Ala14,Arg17,Pro21,Pro27,Pro31]-h-amylin (peptide)
peptide: K([AEEA-γGlu-C20 diacid])CNTATCATQRLAAFLRHSSPNFGAIPSSTPVGSNTY-NH2
modifications: disulfide 2-7; N-terminus assumed
SMILES: CC[C@H](C)[C@H](NC(=O)[C@H](C)NC(=O)CNC(=O)[C@H](Cc1ccccc1)NC(=O)[C@H](CC(N)=O)NC(=O)[C@@H]1CCCN1C(=O)[C@H](CO)NC(=O)[C@H](CO)NC(=O)[C@H](Cc1c[nH]cn1)NC(=O)[C@H](CCCNC(=N)N)NC(=O)[C@H](CC(C)C)NC(=O)[C@H](Cc1ccccc1)NC(=O)[C@H](C)NC(=O)[C@H](C)NC(=O)[C@H](CC(C)C)NC(=O)[C@H](CCCNC(=N)N)NC(=O)[C@H](CCC(N)=O)NC(=O)[C@@H](NC(=O)[C@H](C)NC(=O)[C@@H]1CSSC[C@H](NC(=O)[C@@H](N)CCCCNC(=O)COCCOCCNC(=O)CC[C@H](NC(=O)CCCCCCCCCCCCCCCCCCC(=O)O)C(=O)O)C(=O)N[C@@H](CC(N)=O)C(=O)N[C@@H]([C@@H](C)O)C(=O)N[C@@H](C)C(=O)N[C@@H]([C@@H](C)O)C(=O)N1)[C@@H](C)O)C(=O)N1CCC[C@H]1C(=O)N[C@@H](CO)C(=O)N[C@@H](CO)C(=O)N[C@H](C(=O)N1CCC[C@H]1C(=O)N[C@H](C(=O)NCC(=O)N[C@@H](CO)C(=O)N[C@@H](CC(N)=O)C(=O)N[C@H](C(=O)N[C@@H](Cc1ccc(O)cc1)C(N)=O)[C@@H](C)O)C(C)C)[C@@H](C)O
notes: also called 14A, 17R, 21P, 27P, 31P

target: T1, human amylin receptor; test: SPA competition binding, displacement of 125I-rat amylin from membranes with human amylin 3(a) receptor (Assay V)
Summary of the method: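 Membranes from BHK Amylin 3(a)/CRE-luc cells (35 ng/μL final) were mixed with SPA beads and test compounds in 50 mM Hepes pH 7.4 with 1 mM CaCl2, 5 mM MgCl₂, 0.1% OA and 0.02% Tween20. Incubation ran 120 min at 25° C with shaking; IC₅₀ came from one-site competition fitting.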

Binder | IC50 [nM]
B1 | 0.768
B2 | 0.568
B3 | 0.444
B4 | 0.166
B5 | 0.091
B6 | 0.172
